According to patent US20250122271A1, “ANTI-DKK1 ANTIBODY, PHARMACEUTICAL COMPOSITION THEREOF, AND USE THEREOF” (SHANGHAI JUNSHI BIOSCIENCES CO., LTD., priority 2022, published 2025):
Like-named read-outs stand apart in the source and are kept apart here.

Columns and labels:
[1] = molecular target: T1, human DKK1 antigen (Sino Biological, 10170-H08H) (human, UniProt O94907 32-266); test: ELISA binding; FIG. 4B
T1 chain: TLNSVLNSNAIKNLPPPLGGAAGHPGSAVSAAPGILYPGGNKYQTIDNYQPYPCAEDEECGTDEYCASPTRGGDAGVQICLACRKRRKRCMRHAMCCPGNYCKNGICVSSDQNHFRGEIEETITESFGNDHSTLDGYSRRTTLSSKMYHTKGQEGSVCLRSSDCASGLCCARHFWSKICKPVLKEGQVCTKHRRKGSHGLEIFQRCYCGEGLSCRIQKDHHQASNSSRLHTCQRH

[2] = molecular target: T1, human DKK1 antigen (Sino Biological, …); test: ELISA blocking of DKK1-LRP6
[3] = molecular target: T1, human DKK1 antigen (Sino Biological, …); test: ELISA blocking of DKK1-LRP6
[4] = molecular target: T1, human DKK1 antigen (Sino Biological, …); test: ELISA binding; given as IC50; FIG. 4A

B1: DKN-01 (antibody, V domains shown)
VH: EVQLVESGGGLVQPGGSLRLSCAASGFTFSSYTMSWVRQAPGKGLEWVATISGGGFGTYYPDSVKGRFTISRDNAKNSLYLQMNSLRAEDTAVYYCARPGYNNYYFDIWGQGTTVTVSS
VL: EIVLTQSPATLSLSPGERATLSCHASDSISNSLHWYQQKPGQAPRLLIYYARQSIQGIPARFSGSGSGTDFTLTISSLEPEDFAVYYCQQSESWPLHFGGGTKVEIKR
An EC50 [1] of 0.0154 µg/mL, an IC50 [2] of 0.324 µg/mL and an IC50 [3] of 1.24 µg/mL were found for B1 in this work. It also gave an EC50 [4] of 0.0148 µg/mL.
